Measured values: patent publication US20250114463A1, “LIVER-TARGETED DRUG AND USE THEREOF” (HANMI PHARM. CO., LTD., priority 2021, published 2025)
Bridges are numbered along the chain shown (N, C = ends). Where no end group is shown, it is not given here. [ ]: non-standard residue; d: D form. The star is where a group is joined. Acetyl(2-(4-imidazolyl)) = O=C(Cc1c[nH]cn1)*; Aib = CC(C)(N)C(=O)O

B1: triple agonist of SEQ ID NO: 2 (peptide)
peptide: HXQGTFTSDVSSYLDGQAQKEFIAWLVKGC
HELM: PEPTIDE1{H.[Aib].Q.G.T.F.T.S.D.V.S.S.Y.L.D.G.Q.A.Q.K.E.F.I.A.W.L.V.K.G.C.[am]}$$$$V2.0; N-terminus assumed
SMILES: CC[C@H](C)[C@H](NC(=O)[C@H](Cc1ccccc1)NC(=O)[C@H](CCC(=O)O)NC(=O)[C@H](CCCCN)NC(=O)[C@H](CCC(N)=O)NC(=O)[C@H](C)NC(=O)[C@H](CCC(N)=O)NC(=O)CNC(=O)[C@H](CC(=O)O)NC(=O)[C@H](CC(C)C)NC(=O)[C@H](Cc1ccc(O)cc1)NC(=O)[C@H](CO)NC(=O)[C@H](CO)NC(=O)[C@@H](NC(=O)[C@H](CC(=O)O)NC(=O)[C@H](CO)NC(=O)[C@@H](NC(=O)[C@H](Cc1ccccc1)NC(=O)[C@@H](NC(=O)CNC(=O)[C@H](CCC(N)=O)NC(=O)C(C)(C)NC(=O)[C@@H](N)Cc1c[nH]cn1)[C@@H](C)O)[C@@H](C)O)C(C)C)C(=O)N[C@@H](C)C(=O)N[C@@H](Cc1c[nH]c2ccccc12)C(=O)N[C@@H](CC(C)C)C(=O)N[C@H](C(=O)N[C@@H](CCCCN)C(=O)NCC(=O)N[C@@H](CS)C(N)=O)C(C)C

How the values were obtained:
Assay in all cases: cell-based or functional assay
human GIP receptor = biological target: T1, human GIP receptor (human, UniProt P48546 22-466)
T1 sequence (looked up): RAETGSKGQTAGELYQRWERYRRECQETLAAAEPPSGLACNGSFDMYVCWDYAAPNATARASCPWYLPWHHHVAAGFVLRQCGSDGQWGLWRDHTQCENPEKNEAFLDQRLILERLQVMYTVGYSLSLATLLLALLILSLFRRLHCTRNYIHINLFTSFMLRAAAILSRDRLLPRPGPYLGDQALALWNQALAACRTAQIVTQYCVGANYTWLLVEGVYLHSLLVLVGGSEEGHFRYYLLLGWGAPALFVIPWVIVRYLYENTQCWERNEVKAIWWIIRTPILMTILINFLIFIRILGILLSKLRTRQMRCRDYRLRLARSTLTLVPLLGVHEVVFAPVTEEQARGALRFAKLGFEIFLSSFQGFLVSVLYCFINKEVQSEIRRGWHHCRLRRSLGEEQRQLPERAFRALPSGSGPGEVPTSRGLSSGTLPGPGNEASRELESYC

human GLP-1 receptor = human GLP-1 receptor (human, UniProt P43220 24-463)
human GCG receptor = human GCG receptor (human, UniProt P47871 26-477)
Chain of human GCG receptor (P47871 26-477): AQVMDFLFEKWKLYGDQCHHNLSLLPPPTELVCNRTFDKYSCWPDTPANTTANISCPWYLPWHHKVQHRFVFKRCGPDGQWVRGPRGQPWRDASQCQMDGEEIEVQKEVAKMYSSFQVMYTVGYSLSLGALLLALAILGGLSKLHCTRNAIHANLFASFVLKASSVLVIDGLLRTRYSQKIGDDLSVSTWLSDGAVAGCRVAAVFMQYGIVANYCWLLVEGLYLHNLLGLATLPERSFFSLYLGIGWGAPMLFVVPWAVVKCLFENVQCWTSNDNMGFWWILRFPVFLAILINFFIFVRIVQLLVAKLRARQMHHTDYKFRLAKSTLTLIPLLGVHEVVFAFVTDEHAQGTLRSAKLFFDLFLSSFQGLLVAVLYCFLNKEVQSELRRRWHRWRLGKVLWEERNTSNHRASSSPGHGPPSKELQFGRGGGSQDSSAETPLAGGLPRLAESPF

Binder	in vitro Activity Compared to Native Peptide (%), vs GIP (human GIP receptor) [%]	in vitro Activity Compared to Native Peptide (%), vs GLP-1 (human GLP-1 receptor) [%]	in vitro Activity Compared to Native Peptide (%), vs Glucagon (human GCG receptor) [%]
[Acetyl(2-(4-imidazolyl))]GEGTFISDLSKYMDEQAVQLFVEWLMAGGPSSGAPPPSHG-NH2 [triple agonist of SEQ ID NO: 12]	< 0.1	0.4	< 0.1
Y[Aib]QGTFTSDYSKALDEKAAKDFVNWLLDQHPSSGQPPPSC (bridge 16-20; not fully specified (C-terminus); also: ring type not given here) [triple agonist of SEQ ID NO: 102]	58	23.3	29.5
[Acetyl(2-(4-imidazolyl))]GEGTFTSDLSKYLDSRRQQLFVQWLKAGGPSSGAPPPSHG-NH2 [triple agonist of SEQ ID NO: 11]	< 0.1	1.4	< 0.1
Y[Aib]QGTFTSDYSKALDEKAAKEFVNWLLDQHPSSGQPPPSC (bridge 16-20; not fully specified (C-terminus); also: ring type not given here) [triple agonist of SEQ ID NO: 101]	40.1	23.2	13.9
B1	< 0.1	5.9	< 0.1
[Acetyl(2-(4-imidazolyl))]GQGTFTSDYSIQLDEIAVRDFVEWLKNGGPSSGAPPPSHG-NH2 [triple agonist of SEQ ID NO: 14]	< 0.1	28	< 0.1
[Acetyl(2-(4-imidazolyl))]GEGTFISDYSIQLDEIAVQDFVEWLLAQKPSSGAPPPSHG-NH2 [triple agonist of SEQ ID NO: 13]	< 0.1	< 0.1	< 0.1
[Acetyl(2-(4-imidazolyl))]GQGTFTSDLSKQMDSEAQQLFIEWLKNGGPSSGAPPPSHG-NH2 [triple agonist of SEQ ID NO: 16]	< 0.1	2.1	< 0.1
